Measured values from US20110045003A1 (SYNOVEX, published 2011).
Changes are numbered by the printed parent chain. In names and notes the source's numbering stands.

B1: humanized anti-Cad-11 EC1 antibody SDP051 (Vκ1/VH5) (antibody, IgG4, V domains shown)
VH: EVQLVQSGAEVKKPGASVKVSCKASGYSFTGYFMNWVRQAPGQGLEWIGRINPYTGDTFYNQKFKGRVTITVDKSTSTAYMELSSLRSEDTAVYYCGRLGSRYWYFDVWGQGTTVTVSS
VL: DVLMTQTPLSSPVTLGQPASISCRSSQSIIHSNGNTYLEWYLQKPGQSPQLLIYKVSNRFSGVPDRFTGSGSGTDFTLKISRVEAEDVGVYYCFQGSHVPWTFGQGTKLEIK
notes: humanized IgG4 (S241P), kappa
B2: murine H1M1 monoclonal anti-Cad-11 EC1 antibody (hybridoma H1M1, ATCC PTA-9699) (antibody, V domains shown)
VH: EVQLQQSGPELVKPGASVKISCKASGYSFTGYFMNWVKQSHGKSLEWIGRINPYTGDTFYNQKFKGKATLTVDKSSSTAHMELLSLSSEDSAVYYCGRLGSRYWYFDVWGAGTTVTVSS
VL: B1 VL with S11L, T14S, Q17D, P18Q, Q50K, V88L, Q105G
modifications: Biotinylated when used as the labelled competitor in Example 14; the letters are unchanged.
notes: murine antibody raised against Peptide 4; also called SYN0012; SYN0012/H1M1

Legend:
[1] = target: T1, recombinant his-tagged human Cad-11 (R&D Systems) (human, UniProt P55287 54-617); assay: SPR, rhCad-11 immobilized, SDP051 as analyte, 2 state reaction model
T1 construct: also called rhCad-11; recombinant human Cad-11; not shown: his tag
T1 sequence: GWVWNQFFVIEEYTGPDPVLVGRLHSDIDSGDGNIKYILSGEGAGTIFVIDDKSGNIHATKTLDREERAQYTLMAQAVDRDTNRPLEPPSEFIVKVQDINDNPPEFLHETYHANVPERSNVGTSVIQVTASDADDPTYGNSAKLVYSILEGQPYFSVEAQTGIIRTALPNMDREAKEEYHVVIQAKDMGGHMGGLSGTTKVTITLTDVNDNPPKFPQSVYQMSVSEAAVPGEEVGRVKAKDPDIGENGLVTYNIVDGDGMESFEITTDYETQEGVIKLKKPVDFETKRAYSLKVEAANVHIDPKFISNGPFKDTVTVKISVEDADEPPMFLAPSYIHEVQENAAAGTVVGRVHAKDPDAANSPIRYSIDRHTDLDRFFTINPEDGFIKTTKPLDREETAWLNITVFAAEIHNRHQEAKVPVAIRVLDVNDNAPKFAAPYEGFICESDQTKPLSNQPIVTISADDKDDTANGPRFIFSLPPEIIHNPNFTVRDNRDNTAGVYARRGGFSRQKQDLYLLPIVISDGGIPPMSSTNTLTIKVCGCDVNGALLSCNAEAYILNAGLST
Experimental: (§1) To determine the affinity of SDP051 for recombinant his-tagged human Cad-11, rhCad-11 (R&D Systems) was immobilized to the chip at a single concentration, high resolution kinetics were determined for SDP051, and a 2-state reaction binding model was successfully fitted to the kinetic data.
(§2) Kinetic data were obtained at a flow rate of 40 μL/min to minimize any potential mass transfer effects. An analyte concentration series ranging from 12.5 nM to 0.195 nM was prepared by serial dilution. Two repeats of the blank (no mAb) and the 3.125 nM (first and last cycle) concentration of the analyte were programmed into the kinetic runs in order to check the stability of both the surface and analyte over the kinetic cycles. The SDP051 was injected over the Fcs for 360 seconds, long enough to observe the curvature in association phase.
(§3) As rhCad-11 is homodimeric and therefore contained two identical binding epitopes, it is likely that individual mAb molecules become bound sequentially through a first binding site and then both binding sites.

[2] = target: T2, BSA coupled 37-mer Cad-11 peptide encompassing the Cad-11 immunogen (UniProt P55287 54-90, limits assumed, linked to BSA); assay: ELISA on BSA coupled 37-mer peptide, coat 50 ng/ml; Cad-11 antigen, coat 50 ng/ml
T2 construct: domain: 37-mer peptide encompassing the Cad-11 immunogen; also called Cad-11 antigen; Cad-11 peptide immunogen
T2 peptide (looked up): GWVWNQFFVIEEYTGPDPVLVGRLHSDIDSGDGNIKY

[3] = target: T1, recombinant his-tagged human Cad-11 …; assay: SPR, rhCad-11 immobilized, SDP051 as analyte, 2 state reaction model (ka1)
Experimental: as §1, §2, §3

[4] = target: T1, recombinant his-tagged human Cad-11 …; assay: SPR, rhCad-11 immobilized, SDP051 as analyte, 2 state reaction model (kd1)
Experimental: as §1, §2, §3

[5] = target: T2, BSA coupled 37-mer Cad-11 peptide …; assay: ELISA on BSA coupled 37-mer peptides, coat 50 ng/ml
[6] = target: T3, Cad-9 EC1 domain peptide (region overlapping G1-G33 of Cad-11 EC1) (UniProt Q9ULB4 54-86, conjugated to biotin); assay: ELISA on biotinylated EC1 domain peptide captured on a Neutravidin plate, goat anti-mouse IgG, TMB, A450
T3 construct: domain: first 33 amino acids of the EC1 domain
T3 peptide (looked up): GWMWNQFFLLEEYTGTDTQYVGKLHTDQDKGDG
Experimental: (§4) The specificity of H1M1 and H14 anti-Cad-11 antibodies was tested further using an ELISA against the first 33 amino acids of the EC1 domains of Cad-11, Cad-7, Cad-8, Cad-20, Cad-24, Cad-9, Cad-18, and MN-Cad. Peptides corresponding to the region of Cad-7, Cad-8, Cad-20, Cad-24, Cad-9, Cad-18, MN-Cad that overlapped with the G1-G33 region of the Cad-11 EC1 domain were synthesized and conjugated to biotin. 100 μl of a 30 ng/ml solution of each of these peptides in PBS-Tween (0.05%) were incubated in each well of a 96-well Netravidin plate for 2-3 hrs at 4° C. and then washed twice with PBS-Tween (0.05%). Various concentrations of the anti-Cad-11 antibody were incubated in each well for 1 hr at 22° C. and then washed twice with PBS-Tween (0.05%). 100 μl of a 1/1000 dilution of a goat anti-mouse IgG secondary antibody were added to each well, incubated for 30 min at 22° C., and then washed twice with PBS-Tween (0.05%). 100 μl/well of room temperature TMB (3,3′,5,5′-tetramethylbenzidine) reagent was added to each well and color was allowed to develop for 5 min at 22° C.

[7] = target: T4, Cad-18 EC1 domain peptide (region overlapping G1-G33 of Cad-11 EC1) (UniProt Q13634 54-86, conjugated to biotin); assay: as above
T4 construct: domain: first 33 amino acids of the EC1 domain
T4 peptide (looked up): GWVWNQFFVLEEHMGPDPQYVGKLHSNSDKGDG
Experimental: as §4

[8] = target: T5, Cad-20 EC1 domain peptide (region overlapping G1-G33 of Cad-11 EC1) (UniProt Q9HBT6 60-92, conjugated to biotin); assay: as above
T5 construct: domain: first 33 amino acids of the EC1 domain
T5 peptide (looked up): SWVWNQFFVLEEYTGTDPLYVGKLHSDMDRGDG
Experimental: as §4

[9] = target: T6, Cad-7 EC1 domain peptide (region overlapping G1-G33 of Cad-11 EC1) (UniProt Q9ULB5 48-80, conjugated to biotin); assay: as above
T6 construct: domain: first 33 amino acids of the EC1 domain
T6 peptide (looked up): T5 peptide (looked up) with T14M, T16S, M28V, R30K
Experimental: as §4

[10] = target: T7, Cad-24 EC1 domain peptide (region overlapping G1-G33 of Cad-11 EC1) (UniProt Q86UP0 45-77, conjugated to biotin); assay: as above
T7 construct: domain: first 33 amino acids of the EC1 domain
T7 peptide (looked up): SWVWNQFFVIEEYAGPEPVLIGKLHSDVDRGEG
Experimental: as §4

Binder | Kd [1] | EC50 [2] | kon [3] | koff [4] | binding differential (Cad-11 against Cad-8) [5] | binding result [6] | binding result [7] | binding result [8] | binding result [9] | binding result [10]
B1 | 0.379 nM | 6.8 ng/mL | 613000 M⁻¹ s⁻¹ | 0.0043 s⁻¹ | > 200 fold | – | – | – | – | –
B2 | – | – | – | – | – | no binding | no binding | no binding | no binding | no binding
